Measurements as given in paper PMC8977143, “PDIA3/ERp57 promotes a matrix-rich secretome that stimulates fibroblast adhesion through CCN2” (American Journal of Physiology - Cell Physiology, 2022).

Target: T1, Native human platelet thrombospondin-1 (human, UniProt P07996 19-1170)
T1 construct: thrombospondin-1 (TSP1), human, native protein from platelets; also called TSP1; native human TSP1; source: bought: Cell Sciences Inc. (Cat. No. CSL19832A), native from human platelets
Assay: ELISA; solid-phase binding: PDIA3/ERp57 or CCN2 coated at various concentrations on Immulon 2Hb wells in TBS with 2 mM CaCl2 and 15 µM ZnSO4, 16 h at 4°C; blocked with 5% BSA; 50 µg/mL (388 µM as printed) native human TSP1 added for 1 h at room temperature; detected with anti-TSP1 (C9) and anti-mouse-IgG-HRP, absorbance at 450 nm
Details: both partners purified

T1 sequence (P07996 19-1170): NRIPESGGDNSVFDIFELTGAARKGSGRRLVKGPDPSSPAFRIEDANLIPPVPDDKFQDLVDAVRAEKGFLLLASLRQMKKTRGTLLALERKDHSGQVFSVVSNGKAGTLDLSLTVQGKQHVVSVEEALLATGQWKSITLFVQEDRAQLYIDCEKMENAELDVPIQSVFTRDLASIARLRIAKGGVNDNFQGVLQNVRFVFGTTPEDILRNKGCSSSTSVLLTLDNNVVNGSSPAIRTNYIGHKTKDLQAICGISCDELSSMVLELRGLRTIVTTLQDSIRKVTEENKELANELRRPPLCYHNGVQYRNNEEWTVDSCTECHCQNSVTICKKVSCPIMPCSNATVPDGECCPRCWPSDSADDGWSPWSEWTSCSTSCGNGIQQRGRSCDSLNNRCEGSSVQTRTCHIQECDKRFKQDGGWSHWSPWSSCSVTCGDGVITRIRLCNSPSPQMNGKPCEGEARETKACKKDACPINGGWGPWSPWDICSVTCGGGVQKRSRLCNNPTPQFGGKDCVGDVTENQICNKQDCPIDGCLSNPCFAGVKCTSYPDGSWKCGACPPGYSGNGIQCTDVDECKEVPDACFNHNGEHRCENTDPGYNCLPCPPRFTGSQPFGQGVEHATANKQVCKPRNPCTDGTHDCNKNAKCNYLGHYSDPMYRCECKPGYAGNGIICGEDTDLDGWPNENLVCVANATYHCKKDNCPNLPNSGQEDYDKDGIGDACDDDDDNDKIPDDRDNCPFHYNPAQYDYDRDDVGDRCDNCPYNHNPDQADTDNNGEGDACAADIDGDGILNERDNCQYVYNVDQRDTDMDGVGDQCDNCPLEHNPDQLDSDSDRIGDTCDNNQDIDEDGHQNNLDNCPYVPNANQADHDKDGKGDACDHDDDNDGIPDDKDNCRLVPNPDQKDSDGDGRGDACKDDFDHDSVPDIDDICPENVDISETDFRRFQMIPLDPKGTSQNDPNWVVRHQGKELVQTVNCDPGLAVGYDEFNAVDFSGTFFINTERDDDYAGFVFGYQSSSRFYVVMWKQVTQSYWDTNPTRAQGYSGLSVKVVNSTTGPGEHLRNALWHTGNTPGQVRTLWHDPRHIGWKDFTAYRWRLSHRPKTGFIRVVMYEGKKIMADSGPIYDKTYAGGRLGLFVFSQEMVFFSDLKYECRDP

| Binder | binding result |
| --- | --- |
| Recombinant human PDIA3/ERp57 (enzyme, UniProt P30101 25-505, looked up, protein disulfide isomerase A3 (PDIA3/ERp57), human, recombinant; Limits, host and tags are told only by the supplier's data sheet; source: bought: Abcam (Cat. No. ab92937)) SDVLELTDDNFESRISDTGSAGLMLVEFFAPWCGHCKRLAPEYEAAATRLKGIVPLAKVDCTANTNTCNKYGVSGYPTLKIFRDGEEAGAYDGPRTADGIVSHLKKQAGPASVPLRTEEEFKKFISDKDASIVGFFDDSFSEAHSEFLKAASNLRDNYRFAHTNVESLVNEYDDNGEGIILFRPSHLTNKFEDKTVAYTEQKMTSGKIKKFIQENIFGICPHMTEDNKDLIQGKDLLIAYYDVDYEKNAKGSNYWRNRVMMVAKKFLDAGHKLNFAVASRKTFSHELSDFGLESTAGEIPVVAIRTAKGEKFVMQEEFSRDGKALERFLQDYFDGNLKRYLKSEPIPESNDGPVKVVVAENFDEIVNNENKDVLIEFYAPWCGHCKNLEPKYKELGEKLSKDPNIVIAKMDATANDVPSPYEVRGFPTIYFSPANKKLNPKKYEGGRELSDFISYLQREATNPPVIQEEKPKKKKKAQEDL | binds |
| Recombinant human CCN2 (natural protein, UniProt P29279 27-349, looked up, cell communication network 2 (CCN2/CTGF), human, recombinant; Limits, host and tags are told only by the supplier's data sheet; also called cell communication network 2; CTGF; source: bought: R&D (Cat. No. 9190-CC-050)) QNCSGPCRCPDEPAPRCPAGVSLVLDGCGCCRVCAKQLGELCTERDPCDPHKGLFCHFGSPANRKIGVCTAKDGAPCIFGGTVYRSGESFQSSCKYQCTCLDGAVGCMPLCSMDVRLPSPDCPFPRRVKLPGKCCEEWVCDEPKDQTVVGPALAAYRLEDTFGPDPTMIRANCLVQTTEWSACSKTCGMGISTRVTNDNASCRLEKQSRLCMVRPCEADLEENIKKGKKCIRTPKISKPIKFELSGCTSMKTYRAKFCGVCTDGRCCTPHRTTTLPVEFKCPDGEVMKKNMMFIKTCACHYNCPGDNDIFESLYYRKMYGDMA | binds |
